# Laboratory results taken from patent US20140303084A1 (Biogen, published 2014).
# Square brackets hold non-standard residues; d marks the D form. Primed or numbered codes have the meaning given here. Side chains are listed from the residue outwards. Ends that are not written are not given here. * marks the point of attachment. Biotin = O=C1N[C@H]2[C@H](CS[C@H]2CCCCC(=O)*)N1; PEG2(3) = PEG2 spacer carrying biotin on Lys; Pra = C#CC[C@H](N)C(=O)O; PEG4′ = PEG4 spacer
# B1: SRIrTVSPGSrSASGKSTCLASYCWLFWTGIA (peptide)
# peptide: SRI[dR]TVSPGS[dR]SASGKSTCLASYCWLFWTGIA
# modifications: not fully specified; printed as SRIrTVSPGSrSASGKSTCLASYCWLFWTGIA; cysteine pairing not given here
# B2: Pra-PEG4-PRIrTVGPGSrSASGKSTCLASYCWLFWTGIA (peptide)
# peptide: [Pra][PEG4′]PRI[dR]TVGPGS[dR]SASGKSTCLASYCWLFWTGIA
# modifications: not fully specified (C-terminus); printed as Pra-PEG4-PRIrTVGPGSrSASGKSTCLASYCWLFWTGIA; cysteine pairing not given here
# B3: SKQGRPISPDrRAAGKLTCLASYCWLFWTGI (peptide)
# peptide: SKQGRPISPD[dR]RAAGKLTCLASYCWLFWTGI
# modifications: not fully specified; printed as SKQGRPISPDrRAAGKLTCLASYCWLFWTGI; cysteine pairing not given here
# Molecular target: human Factor IXa (human, UniProt P00740 47-191; P00740 227-461)
# Assay: cell-based or functional assay
Binder,"EC50 [µM], FXa generation assay [µM]","EC50 [µM], FXa generation assay with hFIXa [µM]"
RRAPGKLTCLASYCWLFQTGWAYWGYRQHPGS [RRAPGKLTCLASYCWLF QTGWA YWGYRQHPGS],< 0.5,–
RRAPGKLTCLASYCWLFEPGIAQPYAKSPTRN [RRAPGKLTCLASYCWLF EPGIA QPYAKSPTRN],> 1,–
PTDTGPVISGLRAPGKLTCLASYCWLFWTGIA [PTDTGPVISG LRAPG KLTCLASYCWLFWTGIA],< 0.5,–
B1,> 1,–
SKQGRPISPDRRAAGKLTCLASYCWLFWTGIA[PEG2(3)]K([PEG2(3)-Biotin]) (cysteine pairing not given here) [SKQGRPISPDRRAAGKLTCLASYCWLFWTGIA-PEG2-K(PEG2-Biotin)],> 1,–
RRAPGKLTCLASYCWLFWTGLSRYQWQAQEDV [RRAPGKLTCLASYCWLF WTGLS RYQWQAQEDV],> 1,–
RRAPGKLTCLASYCWLFWRGFAERASEDTNQG [RRAPGKLTCLASYCWLF WRGFA ERASEDTNQG],> 1,–
RRAPGKLTCLASYCWLFWTGWCRDTASHACDS [RRAPGKLTCLASYCWLF WTGWC RDTASHACDS],> 1,–
B2,> 1,–
"PRIRTVGPGSRSASGKSTCLASYCWLFWTGIAX (not fully specified; D-Arg 4, D-Arg 11, C-terminal PEG4-Pra) [PRIrTVGPGSrSASGKSTCLASYCWLFWTGIA-PEG4-Pra]",< 0.5,–
PRIRTVGPGSRSASGKLTCLASYCWLFWTGI,< 0.5,–
RRAPGKLTCLASYCWLFWTGFAFRVGLASSLY [RRAPGKLTCLASYCWLF WTGFA FRVGLASSLY],< 0.5,–
SRIRTVGPGSRSASGKLTCLASYCWLFWTGIA,< 0.5,–
SRSRTVSPGSRSASGKSTCLASYCWLFWTGIA,< 0.5,–
PRIRTVGPGSRRASGKLTCLASYCWLFWTGIA,< 0.5,–
PRIRTVGPGSRSASGKLTCVASYCWLFWTGIA,> 1,–
SRIRTVGPGSRSASGKSTCLASYCWLFWTGIA,< 0.5,–
PSIRTVGPGSRSASGKLTCLASYCWLFWTGIA (not fully specified; cysteine pairing not given here),< 0.5,–
PRIRTVGPGSRSASGKLTCLASYCWLFWSGIA,< 0.5,–
PRIRTVGPGSRSASGKLTCFASYCWLFWTGIA,> 1,–
PRIRTVGPGSRSASGKSTCLASYCWLFWTGIA,< 0.5,–
PRIRTSGPGSRSASGKLTCLASYCWLFWTGIA,< 0.5,–
PRIRTVGPGSRSASGKLTCLASYCWLFWTFIA,< 0.5,–
PRIRTVSPGSRSASGKSTCLASYCWLFWTGIA,< 0.5,–
SRIRTVSPGSRSASGKSTCLASYCWLFWTGIA,< 0.5,–

Binder,"EC50 [µM], FXa generation assay [µM]","EC50 [µM], FXa generation assay with hFIXa [µM]"
PRIRTVGPSSRSASGKLTCLASYCWLFWTGIA,< 0.5,–
PRIRTVGPGSRSASGKLTCLASYCWLLWTGIA,< 0.5,–
PRIRTVGPGSRSASGKLTCLASYCWLFFTGIA,< 0.5,–
PRSRTVGPGSRSASGKLTCLASYCWLFWTGIA,< 0.5,–
PRIRTVSPGSRSASGKLTCLASYCWLFWTGIA,< 0.5,–
PRIRTVGPGSRSASGKLTCLASYCWLAWTGIA,> 1,–
PRIRTVGPGSRSASGKLTCLASYCWLFWTLIA,< 0.5,–
PRIRTVGPGSRSASGKLTCLASACWLFWTGIA,> 1,–
PRIRSVGPGSRSASGKLTCLASYCWLFWTGIA,< 0.5,–
PRIRTVGPGSRSASGKLTCAASYCWLFWTGIA,> 1,–
PRIRTVGSGSRSASGKLTCLASYCWLFWTGIA,< 0.5,–
PRIRTVGPGSRSASGKLTCLASYCWLFLTGIA,< 0.5,–
PRSRTVGPGSRSASGKSTCLASYCWLFWTGIA,< 0.5,–
PRIRTVGPGSRSASGKLTCLASYCWLFWTSIA,< 0.5,–
PRIRTVGPGSRSASGKLTCLASYCWLFATGIA,< 0.5,–
PRISTVGPGSRSASGKLTCLASYCWLFWTGIA,< 0.5,–
PRIRTVGPGSRSASGKLSCLASYCWLFWTGIA,< 0.5,–
PRIRTVGPGSRSASGKLTCSASYCWLFWTGIA,> 1,–
RRAPGKLQCLASYCWLFWTGIA-NH2 (not fully specified (bridges); cysteine pairing not given here) [compound 3],–,< 0.5
GSVRRALFVAARAPAKLTCLASYCWLFWTGIA [GSVRRALFVA ARAPA KLTCLASYCWLFWTGIA],< 0.5,–
RRAPGKLTCLASYCWLFSTPVARKSLRRHQPT (not fully specified (C-terminus); cysteine pairing not given here) [RRAPGKLTCLASYCWLF STPVA RKSLRRHQPT],> 10,–
B3,< 0.5,–
RRAPGKLTCLASYCWLFWTGLASTLYKTYTRE [RRAPGKLTCLASYCWLF WTGLA STLYKTYTRE],> 1,–
RRFVGGSLSQRRAPGKLTCLASYCWLFWTGIA [RRFVGGSLSQ RRAPG KLTCLASYCWLFWTGIA],< 0.5,–
RRAPGKLTCLASYCWLFWTGWAVLARVPVGWT [RRAPGKLTCLASYCWLF WTGWA VLARVPVGWT],< 0.5,–
